Legend:
[1] = target: T1, NGF (nerve growth factor) (human, UniProt P01138 P01138:122-241); test: cell_activity; neurite outgrowth, NGF 0.38 nM; not tested by SPR; TF-1 IC50 0.051 nM; conditions: tags: amine-coupled to CM5 chip in SPR; soluble in cell assays; chain copies: 2
Method: (§1) The neurite outgrowth inhibitory activity of the aptamer obtained in Example 1 was evaluated by using Neuroscreen-1 cell, which is a subclone of PC-12 cells.
(§2) The cells (2500 cells per well) were cultured for one day in an RPMI-1640 medium containing 2.5% horse serum and 1.25% fetal bovine serum in a 96 well flat-bottom plate coated with collagen type IV. […] Two days later, the cytoplasm and nuclei were stained using Cellomics Neurite Outgrowth Kit (manufactured by Thermo Scientific), and neurite length per cell was measured by Cellomics ArrayScan VTI (manufactured by Thermo Scientific). With the neurite length per cell obtained by the addition of NGF alone as inhibitory activity 0%, and that of the cell obtained by NGF free culture for 2 days as inhibitory activity 100%, the inhibitory activity of the aptamer was calculated from the neurite length per cell obtained by culturing with the addition of NGF and the aptamer in mixture. When the inhibitory activity was 0% or below, ‘0%’ is indicated.

[2] = target: T1, NGF (nerve growth factor); test: cell_activity; neurite outgrowth, NGF 0.38 nM; TF-1 IC50 0.218 nM; conditions: tags: human NGF; chain copies: 2
Method: as §1, §2

[3] = target: T1, NGF (nerve growth factor); test: cell_activity; neurite outgrowth, NGF 0.38 nM; TF-1 IC50 0.176 nM; conditions: tags: human NGF; chain copies: 2
Method: as §1, §2

[4] = target: T1, NGF (nerve growth factor); test: cell_activity; neurite outgrowth, NGF 0.38 nM; TF-1 IC50 >0.3 nM; conditions: tags: human NGF; chain copies: 2
Method: as §1, §2

[5] = target: T1, NGF (nerve growth factor); test: cell_activity; neurite outgrowth, NGF 0.38 nM; SPR binding; TF-1 IC50 0.101 nM; conditions: tags: amine-coupled to CM5 chip in SPR; soluble in cell assays; chain copies: 2
Method: as §1, §2

[6] = target: T1, NGF (nerve growth factor); test: cell_activity; neurite outgrowth, NGF 0.38 nM; not tested by SPR; TF-1 IC50 0.520 nM; conditions: tags: amine-coupled to CM5 chip in SPR; soluble in cell assays; chain copies: 2
Method: as §1, §2

[7] = target: T1, NGF (nerve growth factor); test: cell_activity; neurite outgrowth, NGF 0.38 nM; SPR binding; TF-1 IC50 0.072 nM; conditions: tags: amine-coupled to CM5 chip in SPR; soluble in cell assays; chain copies: 2
Method: as §1, §2

[8] = target: T1, NGF (nerve growth factor); test: cell_activity; neurite outgrowth, NGF 0.38 nM; TF-1 IC50 0.164 nM; conditions: tags: human NGF; chain copies: 2
Method: as §1, §2

[9] = target: T1, NGF (nerve growth factor); test: cell_activity; neurite outgrowth, NGF 1.1 nM; SPR binding; TF-1 IC50 11.1 nM; conditions: tags: amine-coupled to CM5 chip in SPR; soluble in cell assays; chain copies: 2
[10] = target: T1, NGF (nerve growth factor); test: cell_activity; neurite outgrowth, NGF 1.1 nM; SPR binding; TF-1 IC50 3.2 nM; conditions: tags: amine-coupled to CM5 chip in SPR; soluble in cell assays; chain copies: 2
Method: as §1, §2

[11] = target: T1, NGF (nerve growth factor); test: cell_activity; neurite outgrowth, NGF 0.38 nM; SPR binding; TF-1 IC50 1.0 nM; conditions: tags: amine-coupled to CM5 chip in SPR; soluble in cell assays; chain copies: 2
Method: as §1, §2

[12] = target: T1, NGF (nerve growth factor); test: cell_activity; neurite outgrowth, NGF 0.38 nM; SPR binding; TF-1 IC50 0.154 nM; conditions: tags: amine-coupled to CM5 chip in SPR; soluble in cell assays; chain copies: 2
Method: as §1, §2

[13] = target: T1, NGF (nerve growth factor); test: cell_activity; neurite outgrowth, NGF 1.1 nM; SPR binding; blocks NGF-TrkA; TF-1 IC50 >30 nM; conditions: tags: amine-coupled to CM5 chip in SPR; soluble in cell assays; chain copies: 2
Method: as §1, §2

[14] = target: T1, NGF (nerve growth factor); test: cell_activity; neurite outgrowth, NGF 1.1 nM; SPR binding; TF-1 IC50 5.7 nM; conditions: tags: amine-coupled to CM5 chip in SPR; soluble in cell assays; chain copies: 2
Method: as §1, §2

[15] = target: T1, NGF (nerve growth factor); test: cell_activity; neurite outgrowth, NGF 1.1 nM; SPR binding; TF-1 IC50 1.0 nM; conditions: tags: amine-coupled to CM5 chip in SPR; soluble in cell assays; chain copies: 2

T1 sequence (P01138 122-241, one chain of several): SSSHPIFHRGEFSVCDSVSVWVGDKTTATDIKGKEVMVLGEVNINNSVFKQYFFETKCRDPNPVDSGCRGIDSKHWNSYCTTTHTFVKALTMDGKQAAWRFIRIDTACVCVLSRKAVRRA

B1: aptamer ID 26(64) (ssRNA)
RNA: GGGAGACUCGCCAGAGUUGAAAGAAACCCAAAUAAGUGUGCGCAC
modifications: 2'-F pyrimidines except 2'-OMe at 7,8,9,11,12,17,18,33,37,39,45; 2'-OMe purines except 2'-OH at 3,19,20,26; 5' PEG80TS4 (ssH linker); 3' idT
For B1, the IC50 [1] was 0.102 nM.

B2: aptamer ID 26(39) (ssRNA)
RNA: GGGAGACUCGCCAGAGUUGAAAGAAACCCAAAUAAGUGUGCGCAC
modifications: as 26(19) (5' and 3' idT; 2'-F pyrimidines; 2'-OMe purines except ribo g3,g19,a20,a26) but c7 is 2'-OMe; PS between a25 and a26
B2 showed an IC50 [2] of 0.168 nM.

B3: aptamer ID 26(33) (ssRNA)
RNA: GGGAGACUCGCCAGAGUUGAAAGAAACCCAAAUAAGUGUGCGCAC
modifications: as 26(19) (5' and 3' idT; 2'-F pyrimidines; 2'-OMe purines except ribo g3,g19,a20,a26) but c12 is 2'-OMe
B3 showed an IC50 [3] of 0.294 nM.

B4: aptamer ID 26(40) (ssRNA)
RNA: GGGAGACUCGCCAGAGUUGAAAGAAACCCAAAUAAGUGUGCGCAC
modifications: as 26(19) (5' and 3' idT; 2'-F pyrimidines; 2'-OMe purines except ribo g3,g19,a20,a26) but c7 is 2'-OMe; PS between a26 and c27
B4 showed an IC50 [4] of 0.247 nM.

B5: aptamer ID 26(59) (ssRNA)
RNA: GGGAGACUCGCCAGAGUUGAAAGAAACCCAAAUAAGUGUGCGCAC
modifications: 2'-F pyrimidines except 2'-OMe at 7,8,9,11,12,17,18,33,37,45; 2'-OMe purines except 2'-F at g3 and 2'-OH at 19,20,26; 5' idT and 3' idT
B5 was tested, and the IC50 [5] was 0.17 nM.

B6: aptamer ID 26(66) (ssRNA)
RNA: GGGAGACUCGCCAGAGUUGAAAGAAACCCAAAUAAGUGUGCGCAC
modifications: 2'-F pyrimidines; 2'-OMe purines except 2'-OH at 3,19,20,26; 5' PEG40GS2 (ssH linker); 3' idT
B6 gave an IC50 [6] of 0.252 nM.

B7: aptamer ID 26(52) (ssRNA)
RNA: GGGAGACUCGCCAGAGUUGAAAGAAACCCAAAUAAGUGUGCGCAC
modifications: 2'-F pyrimidines except 2'-OMe at 7,8,9,11,12,17,18,33,37,39,45; 2'-OMe purines except 2'-OH at 3,19,20,26; 5' idT and 3' idT
B7 showed an IC50 [7] of 0.101 nM.

B8: aptamer ID 26(35) (ssRNA)
RNA: GGGAGACUCGCCAGAGUUGAAAGAAACCCAAAUAAGUGUGCGCAC
modifications: as 26(19) (5' and 3' idT; 2'-F pyrimidines; 2'-OMe purines except ribo g3,g19,a20,a26) but c45 is 2'-OMe
B8 was tested, and the IC50 [8] was 0.166 nM.

B9: aptamer ID 10 (ssRNA)
RNA: GGGAGAACUUCGCCAGAAGUUUGAAAGAAACCCAAAUUAAAAAGUAUGUGCGCAUACA
modifications: 2'-F at all pyrimidines
B9 gave an IC50 [9] of under 3 nM.

Binder GGGAGACUCGCAGAGUUGAAAGAAACCCAAAUAAAGUGUGCGCACA (ssRNA, 2'-F at all pyrimidines) [aptamer ID 27] has an IC50 [10] of under 1 nM.

With GGGAGACUCGCCAGAGUUGAAAGAAACCCAAAUAGUGUGCGCAC (ssRNA, 2'-F at all pyrimidines) [aptamer ID 29] the IC50 [11] was under 0.3 nM.

GGGAGACUCGCCAGAGUUGAAAGAAACCCAAAUAGUGUGCGCAC (ssRNA, 2'-F pyrimidines; 2'-OMe purines except 2'-OH at 3,19,20; 5' idT and 3' idT) [aptamer ID 29(1)] was tested, and the IC50 [12] was 0.058 nM.

B10: aptamer ID 32 (ssRNA)
RNA: GGGAGAACUUCGACCAGAAGUCGAUAACGAACAAAACUCCCAAAGGAAUAUAUGUGCGCAUACA
modifications: 2'-F at all pyrimidines
B10 gave an IC50 [13] of 1 nM.

For GGGAGACUCGCCAGAGUUGAAAGAAACCCAAAUAAAGAUGUGCGCAUCA (ssRNA, 2'-F at all pyrimidines) [aptamer ID 22], the IC50 [14] was 1.3 nM.

B11: aptamer ID 21 (ssRNA)
RNA: GGGAGAACUUCGCCAGAAGUUUGAAAGAAACCCAAAUAAAGAGUGCGCUCA
modifications: 2'-F at all pyrimidines
B11 showed an IC50 [15] of 1.1 nM.

— patent US20130052176, “APTAMER FOR NGF AND USE THEREOF” (SHIONOGI & CO., LTD, published 2013)
